For the experiment, the target named is Synaptotagmin 2 K60A expressed in PC12 or HEK 293 cells (UniProt P29101). Description: immunostaining of cells or tissue.

Where “and” joins values, the source holds several entries; their conditions need not be identical. Identical values can stand only once.

Chain of UniProt P29101 (P29101 whole entry K60A): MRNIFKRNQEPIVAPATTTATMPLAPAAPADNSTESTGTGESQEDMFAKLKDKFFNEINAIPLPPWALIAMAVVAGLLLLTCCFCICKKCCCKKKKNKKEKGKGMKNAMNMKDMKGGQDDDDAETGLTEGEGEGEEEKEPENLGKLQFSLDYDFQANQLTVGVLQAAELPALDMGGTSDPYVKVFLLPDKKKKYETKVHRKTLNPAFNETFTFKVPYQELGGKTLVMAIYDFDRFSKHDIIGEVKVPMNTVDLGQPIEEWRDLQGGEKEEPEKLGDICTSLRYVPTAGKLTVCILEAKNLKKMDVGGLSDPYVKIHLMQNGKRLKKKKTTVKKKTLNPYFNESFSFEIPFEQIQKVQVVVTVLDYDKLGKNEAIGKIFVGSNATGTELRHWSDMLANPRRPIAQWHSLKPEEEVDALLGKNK

For the substance “Botulinum neurotoxin serotype B (B1 Okra strain) with non-toxic accessory proteins (complex)”, the decrease of BoNT/B binding against SYT2-WT was 64% and 69%.

The record behind these values is article doi:10.1101/2021.10.18.464377.
